Measured values published in patent publication US20200087363A1 (IMMATICS BIOTECHNOLOGIES, published 2020).

The binders below were run against T1, HLA-B*44:05 (human) (assay: UV peptide exchange, anti-b2m ELISA).
T1 construct: also called peptide-receptive MHC class I molecule
Outline: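 Peptide-receptive HLA-B*44:05 monomers after UV-induced exchange were diluted 100-fold and captured on streptavidin-coated plates for 1 h at 37 °C. Bound complexes were detected with 2 µg/ml HRP-anti-β2m (1 h, 37 °C) and TMB, read at 450 nm. β2m signal reflects peptide-stabilized complex yield.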

Binder | peptide exchange yield [%]
TELGLFGVW | > 75
VENIFHNF | 20 to 50
IETSSEYFNF | 50 to 75
QESVHVASY | > 75
AEREQVIKL | > 75
YEHAFNSIVW | > 75
SEENTGKTYF | 50 to 75
GETVVLKNM | 50 to 75
MEFQNTQSY | 50 to 75
QEAKPRATW | 50 to 75
RELEEEFYSL | 50 to 75
AERDLNVTI | 50 to 75
EESFDSKFY | 50 to 75
TELEPGLTY | 50 to 75
AEGYLDLDGI | 20 to 50
EEAGFPLAY | 50 to 75
DELMRKESQW | 50 to 75
AEALGAAKKL | 20 to 50
SEFGAPRW | 50 to 75
EESFRCLPEW | > 75
GEPRKLLTQDW | 50 to 75
SELSLLSLY | 50 to 75
MEVDPIGHVY | 50 to 75
TEDYSKQAL | 50 to 75
EEAQWVRKYF | 50 to 75

Binder | peptide exchange yield [%]
KEAINLLKNY | 50 to 75
EEHVYESIIRW | 50 to 75
KEVDPASNTY | 50 to 75
AESLFREAL | 50 to 75
EEINELNRMI | 50 to 75
AEMLGSVVGNW | 50 to 75
AEEKAAVTSL | 50 to 75
RETEDYSKQAL | 20 to 50
RELARVVTL | > 75
QELLDFTNW | > 75
TEENGFWYL | > 75
AEEGPSVPKIY | 50 to 75
AEQQQQQMY | 50 to 75
FETEQALRL | 50 to 75
AEADLSYTWDF | 50 to 75
SELGLPKEV | 20 to 50
HEDPSGSLHL | 50 to 75
AELDSKILAL | 50 to 75
VEVGDRTDW | 50 to 75
QEVAQVASA | 20 to 50
QEVAQVASAIL | > 75
EEYAGQITL | 50 to 75
SESALQTVI | 50 to 75
QEVGEITNL | 50 to 75
AENIKKFLY | 50 to 75

Binder | peptide exchange yield [%]
TEVHSSPAQRW | 50 to 75
KEFGLDSVEL | 50 to 75
ALSPVPSHW | 50 to 75
RENDFEPKF | 50 to 75
REIENGNSF | 50 to 75
REYEDGPLSL | 50 to 75
NEVDGEYRY | 50 to 75
SESKVFQLL | 50 to 75
SESSSAFQF | 50 to 75
QESVHVASYYW | > 75
SESPIRISV | 50 to 75
SEYVHSSF | 20 to 50
SEYVHSSFSGF | 50 to 75
VEMTGKHQL | 20 to 50
EDNPSGHTY | 20 to 50
KEDNPSGHTY | 50 to 75
QEISAHRTEF | 50 to 75
AELVGPVIPQDW | 50 to 75
TEFHMQFSY | > 75
ALEEGGGYIF | 10 to 20
SEATHIITI | 50 to 75
KEMDPSRQSY | 50 to 75
AEIEADRSYQ | 20 to 50
